# Experimental data: US20200371101A1 (Regeneron, published 2020)
# Read-outs that look alike come from different tables or passages of the source. Bridge positions count the residues as written; N and C are the ends. Square brackets hold non-standard residues; d marks the D form. Primed or numbered codes have the meaning given here. Ends that are not written are not given here. * marks the point of attachment. Biotin = O=C1N[C@H]2[C@H](CS[C@H]2CCCCC(=O)*)N1; PEG6′ = PEG linker with 6 ethylene glycol units; PEG8′ = PEG linker with 8 ethylene glycol units; Trp(1-Me) = Cn1cc(C[C@H](N)C(=O)O)c2ccccc21; Phe(4-F) = N[C@@H](Cc1ccc(F)cc1)C(=O)O; Me‑Phe = methyl phenylalanine; PEG3′ = not defined here; Ph‑Tyr = phenyl tyrosine; Pra = C#CC[C@H](N)C(=O)O; Az4 = not defined here; Inh = not defined here; Me‑Val = methyl valine
# B1: (F-Phe)n(Me-Trp)(Me-Trp)w macrocycle (peptide)
# peptide: [Pra][Phe(4-F)][dN][Trp(1-Me)][Trp(1-Me)][dW]-Az4
# modifications: triazole N-C; reading uncertain; also: biotinylated for ELISA, site not given here, printed as (F-Phe)n(Me-Trp)(Me-Trp)w
# B2: Inh-PEG8-wyry (other)
# peptide: {Inh-PEG8′}-[Pra][dW][dY][dR][dY]-Az4
# modifications: triazole N-C; numbers in words are those of the source; reading uncertain; also: Inh joined through PEG8 linker, printed as Inh-PEG8-wyry
# B3: Inh-PEG4-wyry (other)
# peptide: [Pra][dW][dY][dR][dY]-Az4
# modifications: triazole N-C; numbers in words are those of the source; reading uncertain; also: small molecule Inh joined via PEG4 linker, attachment point not given here
# B4: Inh-PEG6-wyry (other)
# peptide: {Inh-PEG6′}-[Pra][dW][dY][dR][dY]-Az4
# modifications: triazole N-C; numbers in words are those of the source; reading uncertain; also: Inh joined through PEG6 linker, printed as Inh-PEG6-wyry
# B5: Deprotected-Inh-Gly2-wyvay (other)
# peptide: Inh-GG[dW][dY][dV][dA][dY]
# modifications: triazole (positions not given here); not fully specified (residue 2, C-terminus); printed as Deprotected-Inh-Gly2-wyvay; reading uncertain; also: IDO1 inhibitor Inh on the Gly2 linker, ring closed by triazole between flanking Pra and Az4
# Experiments:
# [1] = molecular target: T1, His-tagged IDO1 human recombinant protein (71182, BPS Biosciences) (human, UniProt P14902 2-403); test: ELISA: biotinylated peptide on NeutrAvidin plate, 6xHis-tagged human IDO1 titrated
# T1 construct: Bought His-tagged protein; also called human IDO1; recombinant human IDO1
# T1 sequence (P14902 2-403 limits assumed): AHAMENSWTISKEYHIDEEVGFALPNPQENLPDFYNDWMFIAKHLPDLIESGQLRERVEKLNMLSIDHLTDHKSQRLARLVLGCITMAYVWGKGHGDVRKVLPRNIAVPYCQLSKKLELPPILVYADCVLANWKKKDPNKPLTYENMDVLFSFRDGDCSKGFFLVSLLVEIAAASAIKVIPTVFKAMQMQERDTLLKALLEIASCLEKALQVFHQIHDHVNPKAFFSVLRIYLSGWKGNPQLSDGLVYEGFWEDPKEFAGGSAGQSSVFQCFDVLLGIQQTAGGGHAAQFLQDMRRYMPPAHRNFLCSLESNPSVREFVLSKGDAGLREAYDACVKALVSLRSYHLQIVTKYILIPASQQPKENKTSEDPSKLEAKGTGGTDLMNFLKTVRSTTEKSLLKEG
# Protocol: The plate was aspirated and then washed with Wash Buffer (0.05% (v/v) Tween-20 in PBS, 6×). His-tagged IDO1 human recombinant protein (71182, BPS Biosciences) was serially diluted in Wash Buffer (from 200 to 0 nM) and incubated in the designated microwells for 1 h at room temperature. […] (ab49746, Abcam) was prepared at 1:10,000 dilution and added to the microwells for 1 h at room temperature. The plate was aspirated and washed with Wash Buffer (5×). AttoPhos® AP Fluorescent Substrate System (S1000, Promega) was employed to develop the microwells. Using an excitation wavelength of 430 nm, fluorescent emission at 535 nm was recorded by Beckman Coulter DTX880 photometer.
# [2] = molecular target: T1, His-tagged IDO1 human recombinant …; test: cell-based or functional assay
# [3] = molecular target: T1, His-tagged IDO1 human recombinant …; test: binding affinity, assay not named
# [4] = molecular target: T1, His-tagged IDO1 human recombinant …; test: ELISA: biotin-PEG3 macrocycle on NeutrAvidin plate, His-tagged human IDO1 titrated, AP-conjugated anti-6XHis antibody, fluorescence
# [5] = molecular target: T1, His-tagged IDO1 human recombinant …; test: cell-based or functional assay; remark: listed apart in the source
# [6] = molecular target: IDO1 in HeLa cells stimulated with IFNγ (UniProt P14902 1-403, limits assumed); test: cell-based or functional assay
# Chain of IDO1 in HeLa cells stimulated with IFNγ (P14902 whole entry): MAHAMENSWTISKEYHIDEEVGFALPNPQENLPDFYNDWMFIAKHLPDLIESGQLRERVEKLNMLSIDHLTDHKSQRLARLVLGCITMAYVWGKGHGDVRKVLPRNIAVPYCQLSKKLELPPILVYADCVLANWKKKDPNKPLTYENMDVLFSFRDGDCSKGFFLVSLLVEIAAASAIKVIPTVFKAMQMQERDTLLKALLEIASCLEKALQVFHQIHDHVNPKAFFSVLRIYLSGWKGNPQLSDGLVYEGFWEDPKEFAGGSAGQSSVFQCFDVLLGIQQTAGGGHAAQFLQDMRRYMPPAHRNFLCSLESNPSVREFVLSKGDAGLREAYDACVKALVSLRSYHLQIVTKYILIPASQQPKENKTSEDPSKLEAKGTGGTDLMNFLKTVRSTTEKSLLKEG
# [7] = molecular target: T1, His-tagged IDO1 human recombinant …; test: cell-based or functional assay; remark: listed apart in the source
binder,measurement,setting,value
B1,EC50,[1],100 nM
B2,"IC50, IDO1 inhibition assay",[2],3740 nM
"[dW][Ph‑Tyr][Me‑Val]G[Me‑Phe] (not fully specified; printed as w(Ph-Tyr)(Me-Val)G(Me-Phe), Modified version of wyvay) [w(Ph-Tyr)(Me-Val)G(Me-Phe)]",EC50,[3],18 nM
{Biotin-PEG3′}-[dW]-[dW]-[Phe(4-F)] (triazole (positions not given here); also: triazole-cyclised) [ww(F-Phe)],EC50,[4],96 nM
B3,"IC50, IDO1 inhibition assay",[2],871 nM
B4,"IC50, IDO1 inhibition assay",[2],338 nM
same,Inhibition Recombinant IDO1 IC50,[5],338 nM
same,"% inhibition at 8 µM, HeLa",[6],47.8%
B5,"IC50, IDO1 inhibition assay",[7],1010 nM
